The domain aggregation screens of Martell et al. (2025)

Test: soluble fraction after stress (log2 fold change); higher = more stays soluble; pooled small domains, quantitative proteomics
Conditions: stress: 50 degC
Procedure, shortened: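 Quantitative proteomics served as the high-throughput read-out for pooled custom libraries of small protein domains. Each was stressed at 50°C. Aggregation propensity is expressed as the base-two log fold change in soluble protein after stress. A higher value means a larger share of the protein remains in solution.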

Row | Sequence | soluble fraction (log2)
1 | HMDLPDYYFRVRENGAVVFRVGTENRQRRIEMVEIATVNVKNGNIKPHGEVDLTKADRLAIGEWLAARQAQ | -1.36
2 | HMDLPRQSQYQALVVSYARRAGIDEAEEDLLAAFEVWRMRHNHDLAGGRTARDFILAYLPQYQRHKE | -1.63
3 | HMDLQNIQNQLNTEFAKSDTRIIFWFDDKGEYEDEVSELQLGDVKLHILDGLNWFYSKYLLNEA | -0.274
4 | HMDLRAPKPIKEMGEEYIKLYQYLRKGESENIVMSKMNISLDDYDYMRSEIEDKLSLYNMLDLLRKP | -0.718
5 | HMDLRVKRTNKMIMEAFIHLVEQKGYDNITVQEIADEAMINRATFYAHFKDKQDLYDHIFKQAI | -0.762
6 | HMDLSPEQAELAAIRGELGIKIDDYALALNIPRDRLTSYLYGRANVPAEVLISARELRYASSA | 0.00303
7 | HMDMQNIQKGLSAIEPGRTFSREEYYAAIQNGSEMLLKEDALAYSLRKSLSDGDIVRVSWNQYAIP | -0.116
8 | HMDMTPEEFLAWARHKPFGDPFPKTQTVTFLVPLLGVSRTNIFTWISGKVNPSKTSLLLMEALKRENR | -0.289
9 | HMDNEIEQIVEDLNLTLSSLKYTKNQIESILPLIIKEIDDFKKKEKNISFENLLKLAMNHLDND | -0.269
10 | HMDNEIRIPLPSLQRDGFSIGTREDDGSQLVRIMSAGSFGGMIRSFRLPEGMRIEGAKWEGEIVSIRL | 0.0774
11 | HMDNEVTIAVQVNGKLRDKLIVALDTPNEKIEQLALALPKVIQNTSGLTVRKVIVIPNRLVNIVA | -0.171
12 | HMDNIKRGEMFYISRGGASYSGSEQHSDRPAVVVSNDKNNENSNVVEVVYMTTQPKTDLPTHVTVR | 0.0894
13 | HMDNLKELDEILETYGKKKGYLITILQKAQDAYGYISIDIMNRISEFTGIKVAKIYGVATFYAQFRL | 0.146
14 | HMDNPLSQQEKRILQLISLGKTNQEIADILYLSNGTVRNYISSILNKLSANNRVEAARIAEEHGW | -0.73
15 | HMDNPNVMAQVKSLLASKGLSEQEVKERLKAKGLNIDAMSDAEIAQNRSVIEQTIAELEAEKKKAG | -0.128
16 | HMDNPYEVFIPNSYIGQRLDQTLASLFPQFSRSRLQNWLASGNLLVNGKIVKPKTKILGGEQINILDPYN | -0.339

Row | Sequence | soluble fraction (log2)
17 | HMDNTFEEVKEKLLDLLKERPLTPAEVSKRMEEDKNILAQVIQYLLEEEIIKTEDGMLSKVIG | -0.0569
18 | HMDNWYIAFNSFLSQNKLTAKNVSELTGLSKPTIDSYKQGKRKPTDENMQIIKDKLGFNISEILYN | -0.265
19 | HMDPDDEILINIMTKLLTEKQIIIKNKEIFNFLLKRINRTYEEVYNLINKMDKLSLEKKKQLTIPSIKEL | -1.21
20 | HMDPEEETLKNMQRMLQDSGPLKKTEFSLLAKSLGIAEKKARKLIDRGRGRFWTVESGEQKNTQLVTPIQ | -0.0247
21 | HMDPERVVGQTGIVHLRIPARQHNTGKVMIEVQGSLREFDAVSEAEEIPTGTPILIVGRTEEGVFIAQPF | -0.0467
22 | HMDPGPVLISAQVLDDLEAIRRDGSSNMLDWPAVARLAEVMGMDRTAAWVRTHHREYSAGIFRGFASD | -1.68
23 | HMDPHEEELLRQLIRGDIAGYEVLFHKYYPTFFAFIKGMTKETVVAEDITQNIFMKVWLNRERLDAA | -0.0635
24 | HMDPIATLTPREREVLSLMAEGRSNGAIAAALVVGDGAVEKHVSNIFQKLELTPAEGDHRRVLAVLRWLE | -0.901
25 | HMDPLADLFSRIRNAQMRNKKVVTSPASKLRAGILEVLAKEGYIRGYAMTQHASGKNELDIELN | -1
26 | HMDPNAITSAQVTKLQVLANEKGFAERQARLTMWAEVIGRNVGTANELTKAEAHKLIEHMDALPV | -0.488
27 | HMDPNFKYIIRIANSDVSGEQKLAYALTSIRGIGERTSNAIIQKLGLDSTQLAGKLTDKNVEDIESA | -0.027
28 | HMDPPQEVWDLTRSYLDSMNRPVHGHKSPQETYLRQVKSHRLPATALWDYFMAQRFHAVHATSESAA | -0.0648
29 | HMDPPYKDKNLHELLLKINNLNILKKDSVIILHRHKKQKEIFPSNFKIIEQKQYGISKIIFLTVL | 0.00254
30 | HMDPRTSSLTPQERKVLELVGGGLTNRQIAAEMFLAEKTVKNYVSSLLAKLGFERRTQAAVFIASPAF | -0.541
31 | HMDPSKLVEVQEPVSMKALSEGLGIKVTELIATFAFKLKIGGKNINSMLSNDEVELVALDLERNIKVV | 0.164
